This passage reports stoichiometry N and Kd results from article PMC4299515.

A word on the stoichiometry N: it is the number of molecules, sites or subunits per partner or assembly. In general, Kd refers to the equilibrium constant for the complex coming apart. High values mean a looser complex, low ones a tighter complex.

The target of assay [1] is isolated chromoshadow-domain (CSD) of HP1β. Nature of the assay: AUC; sedimentation velocity, c(s) distribution, 8–30 μM protein, physiological ionic strength; no larger complexes than the dimer up to 30 μM.
Assay [2] deals with full-length HP1β (heterochromatin protein 1 beta) (UniProt P83917). Described as above.
The target is the same in assay [3]. Nature of the assay: AUC; sedimentation velocity at lower concentrations (two peaks in c(s)); KD from the relative molar fractions of monomer and dimer; dimer to monomers; physiological ionic strength.

Chain of full-length HP1β (heterochromatin protein 1 beta), P83917 1-185 (natural protein; other documents disagree on this pair) (P83917 whole entry): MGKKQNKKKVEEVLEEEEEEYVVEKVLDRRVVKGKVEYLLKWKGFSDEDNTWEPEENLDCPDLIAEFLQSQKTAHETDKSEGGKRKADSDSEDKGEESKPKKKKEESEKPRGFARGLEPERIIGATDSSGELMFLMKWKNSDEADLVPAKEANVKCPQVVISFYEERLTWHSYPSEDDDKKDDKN
Chain of isolated chromoshadow-domain (CSD) of HP1β (domain or fragment) (P83916 whole entry, the tested form may be a part): as the sequence (P83917 whole entry) above

Regarding “isolated chromoshadow-domain (CSD) of HP1β (domain or fragment)”, the stoichiometry N in assay [1] turned out to be 2.
Regarding “full-length HP1β (heterochromatin protein 1 beta), P83917 1-185 (natural protein; other documents disagree on this pair)”, the stoichiometry N in assay [2] was determined as 2. This substance yielded a Kd in assay [3] of 1 to 2 µM.
